Test results as given in patent US20170173105A1, “AUTOASSEMBLING PEPTIDES FOR THE TREATMENT OF PULMONARY LEAKAGE” (3-D MATRIX, LTD., priority 2014, published 2017).

How the values were obtained:
Type in all cases: physicochemical
[1] = Appearance of 1.5% peptide solutions with various salts at room temperature; conditions: for Appearance: room temperature
Description: The effect of salt ionic strength level on the properties of peptide solutions was evaluated to identify optimized salt ionic strength levels for the peptides as described herein. Increasing the salt ionic strength level of PuraMatrix® and other peptides may generally improve its function and mechanical strength for various clinical applications. To adjust the salt ionic strength of the peptide solutions by way of example, various salt buffer solutions including NaCl, KCl, MgCl2, CaCl2 and DPBS (10×) were added to 2 mL of 1.5% peptide solutions.

[2] = pH and appearance of 2.5% peptide solutions after adding 0.1 N NaOH
Description: To adjust the pH level of the peptide solutions by way of example, 0.1 N NaOH was added to 2 mL of 2.5% peptide solutions and their pH and appearance were measured.

[3] = Gelation of peptide solutions on saline buffer treatment (time sweep); conditions: saline buffer (0.15 M of NaCl); IEIK13 1.5%, KLD12 1.5%, PuraMatrix 2.5%
Description: The effect of salt ionic strength level surrounding peptide solution on the properties of peptide solutions was evaluated to identify the possibility of peptide gelation when the peptide solution is placed into the environment where salt ionic strength level is high. […] Without pH effect, the effect of saline treatment on gelation of peptide solutions were evaluated. […] This is because IEIK13 is much more sensitive to salt ionic strength levels. Fast gelation of IEIK13 at the salt ionic strength level similar to body fluid isotonic salt level may generally improve its function and gelation speed for various clinical applications. The results are shown in FIG. 19 for IEIK13, KLD12 and PuraMatrix® solutions. Time sweep tests were performed at 1 rad/sec and at 1 Pa with 20 mm plates and 500 μm gap distance. […]

[4] = 0.1 N NaOH 0 μL/mL added in 2.5% solution, conc. 2.5%
[5] = 0.1 N NaOH 50 μL/mL added in 2.5% solution, conc. 2.38%
[6] = 0.1 N NaOH 100 μL/mL added in 2.5% solution, conc. 2.27%
[7] = pH increase up to approximately 3.5 or less with 0.1 N NaOH, 2.5% solutions

Arg-Ala-Asp-Ala-Arg-Ala-Asp-Ala-Arg-Ala-Asp-Ala-Arg-Ala-Asp-Ala [PuraMatrix ®]
Appearance ([1]; CaCl2 0 M, ionic strength 0 M, PuraMatrix 1.5%): Clear, thick gel | Appearance ([1]; CaCl2 0.05 M, ionic strength 0.15 M, PuraMatrix 1.48%): Clear, thick, stiffer gel | Appearance ([1]; CaCl2 0.1 M, ionic strength 0.3 M, PuraMatrix 1.45%): Clear, thick, stiffer gel | Appearance ([1]; CaCl2 0.15 M, ionic strength 0.45 M, PuraMatrix 1.43%): Clear, thick, stiffer gel | Appearance ([1]; CaCl2 0.2 M, ionic strength 0.6 M, PuraMatrix 1.4%): Clear, thick, stiffer gel | Appearance ([1]; CaCl2 0.25 M, ionic strength 0.75 M, PuraMatrix 1.38%): Clear, thick, stiffer gel | Appearance ([1]; CaCl2 0.3 M, ionic strength 0.9 M, PuraMatrix 1.35%): Clear, thick, stiffer gel | Appearance ([1]; CaCl2 0.35 M, ionic strength 1.05 M, PuraMatrix 1.32%): Clear, thick, stiffer gel | Appearance ([1]; CaCl2 0.383 M, ionic strength 1.15 M, PuraMatrix 1.31%): Clear, thick, stiffer gel | Appearance ([1]; CaCl2 0.4 M, ionic strength 1.2 M, PuraMatrix 1.3%): Slightly cloudy, thick, stiffer gel | Appearance ([1]; CaCl2 0.417 M, ionic strength 1.25 M, PuraMatrix 1.29%): Slightly cloudy, brittle gel | Appearance ([1]; CaCl2 0.433 M, ionic strength 1.3 M, PuraMatrix 1.28%): Cloudy, phase-separated | Appearance ([1]; DPBS (pH 3.2) 0 M, ionic strength 0 M, PuraMatrix 1.5%): Clear, thick gel | Appearance ([1]; DPBS (pH 3.2) 0.15 M, ionic strength 0.15 M, PuraMatrix 1.35%): Clear, thick, stiffer gel | Appearance ([1]; DPBS (pH 3.2) 0.3 M, ionic strength 0.3 M, PuraMatrix 1.2%): Clear, thick, stiffer gel | Appearance ([1]; DPBS (pH 3.2) 0.45 M, ionic strength 0.45 M, PuraMatrix 1.05%): Clear, thick, stiffer gel | Appearance ([1]; DPBS (pH 3.2) 0.6 M, ionic strength 0.6 M, PuraMatrix 0.9%): Clear, thick, stiffer gel | Appearance ([1]; DPBS (pH 3.2) 0.75 M, ionic strength 0.75 M, PuraMatrix 0.75%): Clear, thick, stiffer gel | Appearance ([1]; DPBS (pH 3.2) 0.9 M, ionic strength 0.9 M, PuraMatrix 0.6%): Clear, thick, stiffer gel | Appearance ([1]; DPBS (pH 3.2) 0.95 M, ionic strength 0.95 M, PuraMatrix 0.55%): Slightly cloudy, brittle gel | Appearance ([1]; DPBS (pH 3.2) 1.0 M, ionic strength 1.0 M, PuraMatrix 0.5%): Cloudy, phase-separated | Appearance ([1]; KCl 0 M, ionic strength 0 M, PuraMatrix 1.5%): Clear, thick gel | Appearance ([1]; KCl 0.15 M, ionic strength 0.15 M, PuraMatrix 1.43%): Clear, thick, stiffer gel | Appearance ([1]; KCl 0.3 M, ionic strength 0.3 M, PuraMatrix 1.35%): Clear, thick, stiffer gel | Appearance ([1]; KCl 0.45 M, ionic strength 0.45 M, PuraMatrix 1.27%): Clear, thick, stiffer gel | Appearance ([1]; KCl 0.6 M, ionic strength 0.6 M, PuraMatrix 1.2%): Clear, thick, stiffer gel | Appearance ([1]; KCl 0.75 M, ionic strength 0.75 M, PuraMatrix 1.13%): Clear, thick, stiffer gel | Appearance ([1]; KCl 0.9 M, ionic strength 0.9 M, PuraMatrix 1.05%): Clear, thick, stiffer gel | Appearance ([1]; KCl 0.95 M, ionic strength 0.95 M, PuraMatrix 1.03%): Clear, thick, stiffer gel | Appearance ([1]; KCl 1.0 M, ionic strength 1.0 M, PuraMatrix 1.0%): Clear, thick, stiffer gel | Appearance ([1]; KCl 1.05 M, ionic strength 1.05 M, PuraMatrix 0.98%): Slightly cloudy, thick, stiffer gel | Appearance ([1]; KCl 1.1 M, ionic strength 1.1 M, PuraMatrix 0.95%): Slightly cloudy, brittle gel | Appearance ([1]; KCl 1.15 M, ionic strength 1.15 M, PuraMatrix 0.93%): Cloudy, phase-separated | Appearance ([1]; MgCl2 0 M, ionic strength 0 M, PuraMatrix 1.5%): Clear, thick gel | Appearance ([1]; MgCl2 0.05 M, ionic strength 0.15 M, PuraMatrix 1.48%): Clear, thick, stiffer gel | Appearance ([1]; MgCl2 0.1 M, ionic strength 0.3 M, PuraMatrix 1.45%): Clear, thick, stiffer gel | Appearance ([1]; MgCl2 0.15 M, ionic strength 0.45 M, PuraMatrix 1.43%): Clear, thick, stiffer gel | Appearance ([1]; MgCl2 0.2 M, ionic strength 0.6 M, PuraMatrix 1.4%): Clear, thick, stiffer gel | Appearance ([1]; MgCl2 0.25 M, ionic strength 0.75 M, PuraMatrix 1.38%): Clear, thick, stiffer gel | Appearance ([1]; MgCl2 0.3 M, ionic strength 0.9 M, PuraMatrix 1.35%): Clear, thick, stiffer gel | Appearance ([1]; MgCl2 0.35 M, ionic strength 1.05 M, PuraMatrix 1.32%): Clear, thick, stiffer gel | Appearance ([1]; MgCl2 0.383 M, ionic strength 1.15 M, PuraMatrix 1.31%): Clear, thick, stiffer gel | Appearance ([1]; MgCl2 0.4 M, ionic strength 1.2 M, PuraMatrix 1.3%): Slightly cloudy, thick, stiffer gel | Appearance ([1]; MgCl2 0.417 M, ionic strength 1.25 M, PuraMatrix 1.29%): Slightly cloudy, brittle gel | Appearance ([1]; MgCl2 0.433 M, ionic strength 1.3 M, PuraMatrix 1.28%): Cloudy, phase-separated | Appearance ([1]; NaCl 0 M, ionic strength 0 M, PuraMatrix 1.5%): Clear, thick gel | Appearance ([1]; NaCl 0.15 M, ionic strength 0.15 M, PuraMatrix 1.43%): Clear, thick, stiffer gel | Appearance ([1]; NaCl 0.3 M, ionic strength 0.3 M, PuraMatrix 1.35%): Clear, thick, stiffer gel | Appearance ([1]; NaCl 0.45 M, ionic strength 0.45 M, PuraMatrix 1.27%): Clear, thick, stiffer gel | Appearance ([1]; NaCl 0.6 M, ionic strength 0.6 M, PuraMatrix 1.2%): Clear, thick, stiffer gel | Appearance ([1]; NaCl 0.75 M, ionic strength 0.75 M, PuraMatrix 1.13%): Clear, thick, stiffer gel | Appearance ([1]; NaCl 0.8 M, ionic strength 0.8 M, PuraMatrix 1.10%): Clear, thick, stiffer gel | Appearance ([1]; NaCl 0.85 M, ionic strength 0.85 M, PuraMatrix 1.08%): Clear, thick, stiffer gel | Appearance ([1]; NaCl 0.9 M, ionic strength 0.9 M, PuraMatrix 1.05%): Slightly cloudy, brittle gel | Appearance ([1]; NaCl 0.95 M, ionic strength 0.95 M, PuraMatrix 1.03%): Cloudy, phase-separated | Appearance ([1]; NaCl 1.0 M, ionic strength 1.0 M, PuraMatrix 1.0%): Cloudy, phase-separated | apparent stiffness on salt ionic strength increase ([1]; up to the ionic strength at which solutions stay clear): increased | Appearance [2, 4]: Clear, thick gel | Peptide solution pH [2, 4]: 2.2 | Appearance [2, 5]: Clear, thick gel | Peptide solution pH [2, 5]: 2.3 | Appearance [2, 6]: Clear, thick gel | Peptide solution pH [2, 6]: 2.4 | Peptide solution pH ([2]; 0.1 N NaOH 150 μL/mL added in 2.5% solution, conc. 2.17%): 2.7 | Peptide solution pH ([2]; 0.1 N NaOH 200 μL/mL added in 2.5% solution, conc. 2.08%): 2.9 | Peptide solution pH ([2]; 0.1 N NaOH 250 μL/mL added in 2.5% solution, conc. 2.0%): 3.2 | Peptide solution pH ([2]; 0.1 N NaOH 275 μL/mL added in 2.5% solution, conc. 1.96%): 3.4 | Peptide solution pH ([2]; 0.1 N NaOH 300 μL/mL added in 2.5% solution, conc. 1.92%): 3.6 | Peptide solution pH ([2]; 0.1 N NaOH 350 μL/mL added in 2.5% solution, conc. 1.85%): 4.5 | Peptide solution pH ([2]; last line per peptide, NaOH volume and conc. not given): 7.0 | apparent stiffness on pH increase [2, 7]: increased | color of solution on pH increase [2, 7]: did not change the clear color | gelation after saline buffer treatment [3]: no or negligible gelation
